The record followed here is paper PMC3510454, “Elba, a novel developmentally regulated chromatin boundary factor is a hetero-tripartite DNA binding complex”.

The target of data set [1] is T1, Elba1;Elba2;Elba3 (Drosophila melanogaster?;Drosophila …, UniProt Q9VR17;Q9VQD6;Q9VR19 1-363;1-381;1-379, ||).
T1 sequence 1: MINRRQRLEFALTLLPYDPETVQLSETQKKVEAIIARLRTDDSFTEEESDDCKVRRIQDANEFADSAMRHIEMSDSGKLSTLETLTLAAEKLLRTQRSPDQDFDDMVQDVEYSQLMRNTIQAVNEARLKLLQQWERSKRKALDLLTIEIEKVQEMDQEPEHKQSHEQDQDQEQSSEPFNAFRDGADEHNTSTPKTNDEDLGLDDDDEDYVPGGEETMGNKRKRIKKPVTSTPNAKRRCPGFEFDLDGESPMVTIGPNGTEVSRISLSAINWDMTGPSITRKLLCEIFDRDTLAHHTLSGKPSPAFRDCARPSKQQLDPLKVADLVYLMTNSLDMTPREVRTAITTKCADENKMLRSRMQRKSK
T1 sequence 2: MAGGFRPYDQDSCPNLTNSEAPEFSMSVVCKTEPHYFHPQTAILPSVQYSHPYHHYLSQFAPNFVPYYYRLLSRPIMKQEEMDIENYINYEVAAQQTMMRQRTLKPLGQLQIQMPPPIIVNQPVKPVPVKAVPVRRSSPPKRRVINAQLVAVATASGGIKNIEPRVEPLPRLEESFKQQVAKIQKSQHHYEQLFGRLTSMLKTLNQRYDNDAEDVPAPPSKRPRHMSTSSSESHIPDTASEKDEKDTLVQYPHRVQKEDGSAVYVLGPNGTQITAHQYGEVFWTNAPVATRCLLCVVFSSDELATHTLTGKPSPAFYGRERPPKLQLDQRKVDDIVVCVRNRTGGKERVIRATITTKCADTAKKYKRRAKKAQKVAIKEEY
T1 sequence 3: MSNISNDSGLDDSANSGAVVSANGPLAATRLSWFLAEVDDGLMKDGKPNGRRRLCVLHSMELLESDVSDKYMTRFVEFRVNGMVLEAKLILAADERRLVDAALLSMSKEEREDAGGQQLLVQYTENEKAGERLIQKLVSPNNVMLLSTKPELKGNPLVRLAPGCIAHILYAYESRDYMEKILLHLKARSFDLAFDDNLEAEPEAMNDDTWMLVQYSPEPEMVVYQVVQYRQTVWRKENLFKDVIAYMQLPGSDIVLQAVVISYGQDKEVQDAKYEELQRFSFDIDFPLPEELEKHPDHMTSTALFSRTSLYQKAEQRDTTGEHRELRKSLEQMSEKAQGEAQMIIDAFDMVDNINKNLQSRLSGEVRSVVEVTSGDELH
Nature of the data set: competition; 100-fold excess; EMSA: ~0.1 M KCl, 12.5-250 ug/ml poly(dI-dC):poly(dI-dC), 1/2 hr at room temperature, 4% acrylamide gel, otherwise as Aoki et al. 2008; affinity beads: HBB (10). The note with it: protein: ivt;ivt;ivt; tags: none;none;none; copies: 1;1;1; label: none.

Data set [2] has as its target T2, GST-Elba1F;GST-Elba2F (Drosophila melanogaster?;Drosophila …, UniProt Q9VR17;Q9VQD6 1-363;1-381, |).
T2 sequence 1: T1 sequence 1
T2 sequence 2: T1 sequence 2
Description: EMSA; co-translated; EMSA: ~0.1 M KCl, 12.5-250 ug/ml poly(dI-dC):poly(dI-dC), 1/2 hr at room temperature, 4% acrylamide gel, otherwise as Aoki et al. 2008; affinity beads: HBB (10). The note with it: protein: ivt;ivt; tags: N-terminal FLAG and GST;N-terminal FLAG and GST; copies: 1;1. A general note: Mobility shift assays separate free from complexed probe on a gel.

The target in data set [3] is T1, Elba1;Elba2;Elba3. Description: EMSA; EMSA: ~0.1 M KCl, 12.5-250 ug/ml poly(dI-dC):poly(dI-dC), 1/2 hr at room temperature, 4% acrylamide gel, otherwise as Aoki et al. 2008; affinity beads: HBB (10). The following applies: protein: ivt;ivt;ivt; tags: none;none;none; copies: 1;1;1.
The target in data set [4] is T3, GST-Elba1 BEN;GST-Elba2 BEN (Drosophila melanogaster?;Drosophila …, UniProt Q9VR17;Q9VQD6 255-363;268-381, |).
T3 sequence 1: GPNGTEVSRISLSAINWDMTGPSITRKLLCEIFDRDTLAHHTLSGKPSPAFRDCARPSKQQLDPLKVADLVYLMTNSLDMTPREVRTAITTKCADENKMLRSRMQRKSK
T3 sequence 2: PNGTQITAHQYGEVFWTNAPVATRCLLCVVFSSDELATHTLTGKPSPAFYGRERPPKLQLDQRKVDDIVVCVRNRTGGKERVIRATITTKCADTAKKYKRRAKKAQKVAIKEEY
Described as above. The note with it: protein: ivt;ivt; tags: N-terminal FLAG and GST;N-terminal FLAG and GST; copies: 1;1.

The target in data set [5] is T4, FLAG-Elba1F;FLAG-Elba2F;FLAG-Elba3F (Drosophila melanogaster?;Drosophila …, UniProt Q9VR17;Q9VQD6;Q9VR19 1-363;1-381;1-379, ||).
T4 sequence 1: T1 sequence 1
T4 sequence 2: T1 sequence 2
T4 sequence 3: T1 sequence 3
The data set is described as above. The note with it: protein: ivt;ivt;ivt; tags: N-terminal FLAG;N-terminal FLAG;N-terminal FLAG; copies: 1;1;1.

In data set [6] the target is T5, GST-Elba1F;GST-Elba2F;FLAG-Elba3F (Drosophila melanogaster?;Drosophila …, UniProt Q9VR17;Q9VQD6;Q9VR19 1-363;1-381;1-379, ||).
T5 sequence 1: T1 sequence 1
T5 sequence 2: T1 sequence 2
T5 sequence 3: T1 sequence 3
Description: EMSA; supershift by Elba3; EMSA: ~0.1 M KCl, 12.5-250 ug/ml poly(dI-dC):poly(dI-dC), 1/2 hr at room temperature, 4% acrylamide gel, otherwise as Aoki et al. 2008; affinity beads: HBB (10). The note with it: protein: ivt;ivt;ivt; tags: N-terminal FLAG and GST;N-terminal FLAG and GST;N-terminal FLAG; copies: 1;1;1.

B1: M6 oligo (dsDNA)
DNA 1: TGCAGCGCCCAATAAGCAAATGTACGC
DNA 2: GCGTACATTTGCTTATTGGGCGCTGCA
modifications: 3-bp substitution
On to B1, for which the binding result in data set [1] is listed as “binds”.

B2: Elba probe 27 bp (WT) (dsDNA)
DNA 1: TGCAGCGCCCAATAAGCAAATGGCAGC
DNA 2: GCTGCCATTTGCTTATTGGGCGCTGCA
As to B2, the binding result in data set [2] is recorded as “binds”; in data set [3], “binds”; in data set [4], “no binding”; in data set [5], “binds”; in data set [6], “binds”.
